Data: PMC12431651
Where two headings read alike, the source gives them in different places.

Legend:
[1] = target: His-tagged MED25 ACID (aa 389–543) (human) (UniProt Q71SY5); test: BLI; His-MED25 ACID (1 µM) captured on Ni-NTA biosensors, NS1 proteins as analytes in 2-fold dilutions; 20 mM Tris pH 8.0, 200 mM NaCl, 1 mM TCEP, 0.05% Tween, 25°C; global fit, 1:1 model for NS1, 2:1 heterogeneous model for NS1Δα3 and the point mutants
[2] = target: MED25 ACID (Homo sapiens) (UniProt Q71SY5); conditions: cited from earlier work
[3] = target: MED25 ACID (Homo sapiens) (UniProt Q71SY5); conditions: cited from earlier work; remark: listed apart in the source
[4] = target: MED25 ACID (Homo sapiens) (UniProt Q71SY5); conditions: cited from earlier work; remark: listed apart in the source
[5] = target: MED25 ACID (Homo sapiens) (UniProt Q71SY5); conditions: cited from earlier work; remark: listed apart in the source
[6] = target: MED25 ACID (Homo sapiens) (UniProt Q71SY5); test: NMR; conditions: cited from earlier work
[7] = target: MED25 ACID (H1 interface) (Homo sapiens) (UniProt Q71SY5); test: NMR; conditions: cited from earlier work
[8] = target: MED25 ACID (Homo sapiens) (UniProt Q71SY5); conditions: cited from earlier work; remark: listed apart in the source
[9] = target: MED25 ACID (Homo sapiens) (UniProt Q71SY5); conditions: cited from earlier work; remark: listed apart in the source
[10] = target: MED25 ACID (Homo sapiens) (UniProt Q71SY5); conditions: cited from earlier work; remark: listed apart in the source
[11] = target: MED25 ACID (Homo sapiens) (UniProt Q71SY5); test: ITC; conditions: cited from earlier work
[12] = target: MED25 ACID (Homo sapiens) (UniProt Q71SY5); conditions: cited from earlier work; remark: listed apart in the source

Chain of His-tagged MED25 ACID (aa 389–543) (human) (Q71SY5 389-543): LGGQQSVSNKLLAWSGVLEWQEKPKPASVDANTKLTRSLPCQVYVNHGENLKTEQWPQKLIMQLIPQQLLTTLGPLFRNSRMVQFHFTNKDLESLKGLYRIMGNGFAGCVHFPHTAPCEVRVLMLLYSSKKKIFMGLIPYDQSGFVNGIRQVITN
Chain of MED25 ACID (Homo sapiens) (Q71SY5 389-543): as above
Chain of ERM TAD (P41161 38-68): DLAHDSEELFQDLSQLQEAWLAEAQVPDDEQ
Chain of MED25 ACID (H1 interface) (Homo sapiens) (Q71SY5 389-543): as the sequence (Q71SY5 389-543) above
Chain of ATF6α TAD (P18850 40-66): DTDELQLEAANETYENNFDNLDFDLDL
Chain of p53 TAD2 (P04637 38-61): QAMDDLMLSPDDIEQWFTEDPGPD
Chain of p53 TAD (P04637 1-61): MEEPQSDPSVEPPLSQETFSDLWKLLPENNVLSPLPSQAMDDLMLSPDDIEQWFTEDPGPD

Substance	Kd1 (binding mode 1) [1]	Kd2 (binding mode 2) [1]	ka1 (binding mode 1) [1]	ka2 (binding mode 2) [1]	kdis1 (binding mode 1) [1]	kdis2 (binding mode 2) [1]	further results
NS1 M122A (natural protein)	42.3 nM	9.4 nM	210000 M⁻¹ s⁻¹	120000 M⁻¹ s⁻¹	0.009 s⁻¹	0.0011 s⁻¹	–
NS1 E110A (natural protein)	1630 nM	1320 nM	120000 M⁻¹ s⁻¹	3000 M⁻¹ s⁻¹	0.19 s⁻¹	0.0034 s⁻¹	–
NS1Δα3 (NS1 aa 1–116) (domain or fragment)	615 nM	850 nM	80000 M⁻¹ s⁻¹	3000 M⁻¹ s⁻¹	0.05 s⁻¹	0.0024 s⁻¹	–
p53 TAD (from UniProt P04637)	–	–	–	–	–	–	Kd [2]: 800 nM
RSV NS1, full-length wild type (aa 1–139) (natural protein)	–	–	–	–	–	–	Kd [1]: 16.5 nM; koff [1]: 0.002 s⁻¹; kon [1]: 120000 M⁻¹ s⁻¹
VP16 TAD (from UniProt P06492)	–	–	–	–	–	–	Kd [3]: 50 nM
VP16 TAD1 (from UniProt P06492)	–	–	–	–	–	–	Kd [4]: 1600 nM; Kd [5]: 1600 nM
NS1 α3 peptide (from UniProt P0DOE8)	–	–	–	–	–	–	Kd [6]: 10000 nM; Kd [7]: 500000 nM
NS1 K112A (natural protein)	68.1 nM	7.5 nM	160000 M⁻¹ s⁻¹	140000 M⁻¹ s⁻¹	0.011 s⁻¹	0.0011 s⁻¹	–
NS1 F56A (natural protein)	333 nM	72 nM	130000 M⁻¹ s⁻¹	20000 M⁻¹ s⁻¹	0.043 s⁻¹	0.0014 s⁻¹	–
p53 TAD2 (from UniProt P04637)	–	–	–	–	–	–	Kd [8]: 8100 nM
ERM TAD (from UniProt P41161)	–	–	–	–	–	–	Kd [9]: 600 nM
NS1 I54A (natural protein)	71.2 nM	28.3 nM	200000 M⁻¹ s⁻¹	80000 M⁻¹ s⁻¹	0.014 s⁻¹	0.0023 s⁻¹	–
ATF6α TAD (from UniProt P18850)	–	–	–	–	–	–	Kd [10]: 500 nM
NS1 (from UniProt P0DOE8)	–	–	–	–	–	–	Kd [11]: 15 nM; Kd [12]: 20 nM
